# The DeepSol protein solubility set
# Assay: soluble on expression in E. coli; label from the status in PepcDB or PDB records
row,Sequence,soluble on expression in E. coli
1,CHEASAIGMKDTIGVGKGTVIFDDFEEADAIFVIGQNPGTNHPRMLEPLREAVKRGAQVICLNPLKERGLERFQNPQMPIEMLSNGSEPTNTAYLRPALGGDMAVFRGIAKFLLQWEREALQNGGKAVFDREFIKQHTIGIDEYLAEVDATSWEHIAEQSGLDLSEIEMVASMYRRAERVIMCWAMGLTQHRHSVPTIKEVANVQMLRGNVGKPGAGLSPVRGHSNVQGDRTMGIDEKPSDLLLDRIESRFNFD,not soluble
2,CPRMGHVFPLETRPYNQGSRLTAYELVYDKIPSTLITDSSIAYRIRTSPIPIKAAFVGADRIVRNGDTANKIGTLQLAVICKQFGIKFFVVAPKTTIDNVTETGDDIIVEERNPEEFKVVTGTVINPENGSLILNESGEPITGKVGIAPLEINVWNPAFDITPHELIDGIITEEGVFTKNSSGEFQLESLF,soluble
3,CSEVNVVKERPKTDEHKSYSCSFKGCTDVELVAVICPYCEKNFCLRHRHQSDHDCEKLEVAKPRMAATQKLVR,soluble
4,CSPVRERRLEHQLEPGDTLAGLALKYGVTMEQIKRANRLYTNDSIFLKKTLYIPILTEPRDLFN,soluble
5,DAGQANDDALRVALQFKPVADFSPYSDDAVLNLRMGAVETLVTLDEDGKPKPVLAEKWEMKDDRTAVLTLRKDVSFHDGSKLTGEVVKNALDHALSATTRPKGLGKADLKVEATGESEVTITAPEADPILVQRLTDPGAAILSKDAYAGENPDPFNHGTGPFKLVKKESDGSVSAEAFADYWNGTPETSALKVSFIEDGAARANAFRAGDFDVIKGVPVVALPELSDAHVTDVHLPRATLLHLNAEKGVFADAKLRTAVAGAIKTDAIVDKIYEGKANKTEGSLFNLDAQWAQKAKPLAGAPADATIGKGKTVRLATWDSRAELPETANLIADQLRALGFNVDITVADYASLENRLLDGSFDAVIGSRSYMIGAGDPVAFLDTDFTCDGSYNLSRLCDPEIDKKIAAAKSEKDLDTRHKD,not soluble
6,DCYCRIPACIAGEAAYGTCIYQGALWAFCC,soluble
7,DEAWLTEMLKRVNVLPEALVLTQAANESAWGTSRFATQANNLFGQWCYKQGCGIVPAQRAAGKTHEVQKFDSVQQSIHGYFMNVNRNPAYADLRDIRAMLADKHKNLFSVATASELTHGLLSYSERGIAYVNDLRSMIRHNNAYWTQ,not soluble
8,DELCVVCGDKATGYHYRCITCEGCKGFFRRTIQKNLHPSYSCKYEGKCVIDKVTRNQCQECRFKKCIYVGMATDLVLDDSKRLAKRKLIEENREKRRREELEK,soluble
9,DELLALASIYDGDEFRKAESVQGGETRIYLDLPQNFKIFVSGNSNECLQNSGFEYTICFLPPLVLNFELPPDYPSSSPPSFTLSGKWLSPTQLSALCKHLDNLWEEHRGSVVLFAWMQFLKEETLAYLRIRLLTKPERKLSWLLPPLSNN,not soluble
10,DESSKNGLMDMVSQGLNAESSPLTELLTSQLPVSTEQAAGGSSALIALAQSQLSQQNSTELQSLIPGLSNLKGAQSLLGNIESLSAVQSAFN,not soluble
11,DHSARPKLGIDLQGGTRVTLVPQGQNPTEDQLAQAKSILENRVNGMGVSGASVVSDGNTLVITVPGEDTTQARALGQTSQLLFRPVAKPDAPDTTKLLDAMKEMANRWVEVGVLTPQEANDALSNTAKALAQSEGKKPEDAKAPTVTAKEPKEPANSIESEQLRNKVLEVMKKDRQSTDATTQLSASSLLKCDDTPDPLQGTDDPTKPLVACDPSSGQVYVLSPAPLLQGETDQANGKRLTGNEIDTNRPITGGLNPQTGQMEIGFSFKSDNGDQGSATWAKLTQEYLQKQVAITLDSK,not soluble
12,DILLTQSPAILSVSPGERVSFSCRASQSIGTDIHWYQQRTNGSPRLLIKYASESISGIPSRFSGSGSGTDFTLSINSVESEDIANYYCQQSNRWPFTFGSGTKLEIKRADAAPTVSIFPPSSEQLTSGGASVVCFLNNFYPKDINVKWKIDGSERQNGVLNSWTDQDSKDSTYSMSSTLTLTKDEYERHNSYTCEATHKTSTSPIVKSFNRN,soluble
13,DITGIATGYRDLDHMTTGLHEEELIILAARPAVGKTAFALNIAQNIGTKLDKTVAIFSLEMGAESLVDRMLAAEGLVESHSIRTGQLTDEEWQKYTIAQGNLANASIYIDDTPGIRITEIRSRSRKLAQETGNLGLILIDYLQLITGTGRENRQQEVSEISRQLKILAKELKVPVIALSQLSRGVEQRQDKRPVLSDI,not soluble
14,DKPLSNMKILTLGKLSRNKDEVKAMIEKLGGKLTGTANKASLCISTKKEVEKMNKKMEEVKEANIRVVSEDFLQDVSASTKSLQELFLAHILSSWGAEVK,soluble
15,DLKDPIKISIPRYVLCGQGKDAHFEFEVKITVLDETWTVFRRYSRFREMHKTLKLKYAELAALEFPPKKLFGNKDERVIAERRSHLEKYLRDFFSVMLQSATSPLHINKVGLTLSKHTICEFSPFFKKGVFDYS,soluble
16,DNAVGPPASAPPPPSVPVAKALSRTLAPTAEFTGFLAAPETVELRSRVGGTLDAISVPEGRLVSRGQLLFQIDPRPFEVALDTAVAQLRQAEVLARQAQADFDRIQRLVASGAVSRKNADDVTATRNARQAQMQSAKAAVAAARLELSWTRITAPIAGRVDRILVTRGNLVSGGVAGNATLLTTIVSHNPMYVYFDIDEATWLKALRHTRSDKNPPVVNMGLTTDNGLPYQGVLDFMGNQMNRSTGTIRARAVIPDPDGMLSPGLFARISLPIGEPRETVLIDDLAVSADQGKNYVLIVGKENQVEYRPVELGQMVD,not soluble
17,DNYNVEGASASFAVGYERGVKQLAEGLLLSIYAELDWAAFRSVSDKRSLPFSDDSAQNRFRFLAGAGVHKRLNPNIELYARGAVGASFFPENNGSSSRELKGGFNVSLRVGLSCSLRDNFAVFIDTGTSDIVRGGLALMW,not soluble
18,DPQPDPLQPDVYLLVNARAAHTNGEESINMDAEDFEDRVHSLAMLVFDSNTGEKVAEHFSSSIGSGTSTYVFTVKLKPGQRD,not soluble
19,DRKQQERELTETNSVLSSVLDNMPVGILIEDADRTITTANKKLLDILDVSLTPSGLIGCEYAEIAETLKTQFADPDQFNETVNKIHSTRDAVFDEELLMADGRILARSYVSYSLPDGTGNIWLYRDIT,not soluble
20,DTILCFGDCRPLHKEAKRWAKSKGIRFLAFEEGYLRPQFITVEEGGVNAYSSLPRDPDFYRKLPDMPAPHVENLKPSTMKRIGHAMWYYLMGWHYRHEFPRYRHHKSFSPWYEARCWVRAYWRKQLYKVTQRKVLPRLMNELDQRYYLAVLQVYNDSQIRNHSNYNDVRDYINEVMYSFSRKAPKESYLVIKHHPMDRGHRLYRPLIKRLSKEYGLDERVIYVHDLPMPELLRHAKAVVTINSTAGISALIHNKPLKVMGNALYDIKGLTYQGHLHQFWQADFKPDMKLFKKFRGYLLVKTQVNGGYY,not soluble
21,DVPLTPSQFAKAKSENFDKKVILSNLNKPHALLWGPDNQIWLTERATGKILRVNPESGSVKTVFQVPEIVNDADGQNGLLGFAFHPDFKNNPYIYISGTFKNPKSTDKELPNQTIIRRYTYNKSTDTLEKPVDLLAGLPSSKDHQSGRLVIGPDQKIYYTIGDQGRNQLAYLFLPNQAQHTPTQQELNGKDYHTYMGKVLRLNLDGSIPKDNPSFNGVVSHIYTLGHRNPQGLAFTPNGKLLQSEQGPNSDDEINLIVKGGNYGWPNVAGYKDDSGYAYANYSAAANKSIKDLAQNGVKVAAGVPVTKESEWTGKNFVPPLKTLYTVQDTYNYNDPTCGEMTYICWPTVAPSSAYVYKGGKKAITGWENTLLVPSLKRGVIFRIKLDPTYSTTYDDAVPMFKSNNRYRDVIASPDGNVLYVLTDTAGNVQKDDGSVTNTLENPGSLIKFTYKAK,soluble
22,DVQLLESGPGLVAPSQSLSITCTVSGFSLTNYGVDWVRQPPGKGLEWVGVIWSGGSTNYNSALMSRLSISKDNSKSQVFLKMNSLQTDDTAVYYCAKHWGGYYIPYGMDHWGQGTTVTVSSASTKGPSVFPLAPSSKSTSGGTAALGCLVKDYFPEPVTVSWNSGALTSGVHTFPAVLQSSGLYSLSSVVTVPSSSLGTQTYICNVNHKPSNTKVDKKVEPKSCDKTHT,soluble
23,DYKDDDDKVKLTCYQNGVSFTGGKAISEAKAASSQACQELCEKDAKCRFFTLASGKCSLFADDAALRPTKSDGAVSGNKRCILLED,soluble
24,DYKYVLKGHEDIRQDSLVMQLFGLVNTLLKNDSECFKRHLDIQQYPAIPLSPKSGLLGWVPNSDTFHVLIREHRDAKKIPLNIEHWVMLQMAPDYENLTLLQKIEVFTYALDNTKGQDLYKILWLKSRSSETWLERRTTYTRSLAVMSMTGYILGLGDRHPSNLMLDRITGKVIHIDFGDCFEAAILREKYPEKVPFRLTRMLTYAMEVSGIEGSFRITCENVMRVLRDNKESLMAILEAFALDPLIHWGFD,not soluble
25,EAAFWGASNELLHDPTMIKEGSSWYALGTGLTEERGLRVLKSSDAKNWTVQKSIFTTPLSWWSNYVPNYGQNQWAPDIQYYNGKYWLYYSVSSFGSNTSAIGLASSTSISSGGWKDEGLVIRSTSSNNYNAIDPELTFDKDGNPWLAFGSFWSGIKLTKLDKSTMKPTGSLYSIAARPNNGGALEAPTLTYQNGYYYLMVSFDKCCDGVNSTYKIAYGRSKSITGPYLDKSGKSMLEGGGTILDSGNDQWKGPGGQDIVNGNILVRHAYDANDNGIPKLLINDLNWSSGWPSY,soluble
26,EAIGASVIPMSAGNTEKQIMIMQDYKTTALVCTPSYAITIADRMEKMGVDPKSLSLKVGLFGAEPWSEAMRKEIENRLFVSATDNYGLSEIIGPGVAGDCEYKCGMHIS,not soluble
27,EDPLAKKQTVRLIKDLQRAINKVLCTRLRLSNFFTIDHFIQKLHTARKILVLTGAGVSTSLGIPDFRSSEGFYSKIKHLGLDDPQDVFNYNIFMHDPSVFYNIANMVLPPEKIYSPLHSFIKMLQMKGKLLRNYTQNIDNLESYAGISTDKLVQCHGSFATATCVTCHWNLPGERIFNKIRNLELPLCPYCYKKRREYFPEGYNNKVGVAASQGSMSERPPYILNSYGVLKPDITFFGEALPNKFHKSIREDILECDLLICIGTSLKVAPVSEIVNMVPSHVPQVLINRDPVKHAEFDLSLLGYCDDIAAMVAQKCGWTIPHKKWNDLKNKNFKCQEKDKGVYVVTSDEHPKTL,soluble
28,EGCYVATLEKCATCSQPILDRILRAMGKAYHPGCFTCVVCHRGLDGIPFTVDATSQIHCIEDFHRKFA,soluble
29,EGFKKLELNYMKERSYEEAKEYLDRALKNSVLKRVRGLDKVGIICSGGVDSSLIAKLASLYCEVILYAVGTENSEDLIYAERLAKDLNLKLRKKIISEEEYEEYVFKVAKAIDEVDLMKIGVGIPIYVASEMANEDGLKVVLSGQGADELFGGYARHERIYRERGEEELKKELLKDVYNLYKVNLERDDHCTMANGVELRVPFLDEEVVEIALSIPIEYKMSELSNRPYAESNISLKSEPINGLKNTNLNIKCVRSVRKKILRDVASQYLPDYIAYRPKKAAQYGSG,soluble
30,EHLLEELESELVRRVYSTHFPPQVSIDEGQAQLACAEFHAVTPEEGQDLLVLSGDHQAQNNQGHYGLTDTFLDIADEFGIQRVFALGGVPTGELIEEYDVLGATTTEDFKETLEESGVAFREDEPAGGIVGVSGLLLGLSKRRDVPASCLMGETSGYLVDPKSAQAVLEILQDVIGFEVDYSSLEDRADEMEEVVRKIQEMEQQNSPSPADEDLRYIG,not soluble
